# Target: ALK-1/BMPR-2 receptor pair of the PathHunter U2Os dimerization cells (DiscoverX 93-0962C3) (UniProt P37023 22-503; Q13873 27-1038)
# Assay: cell-based or functional assay
# Chain of ALK-1/BMPR-2 receptor pair of the PathHunter U2Os dimerization cells (DiscoverX 93-0962C3) (P37023 22-503, chain 1 of 2): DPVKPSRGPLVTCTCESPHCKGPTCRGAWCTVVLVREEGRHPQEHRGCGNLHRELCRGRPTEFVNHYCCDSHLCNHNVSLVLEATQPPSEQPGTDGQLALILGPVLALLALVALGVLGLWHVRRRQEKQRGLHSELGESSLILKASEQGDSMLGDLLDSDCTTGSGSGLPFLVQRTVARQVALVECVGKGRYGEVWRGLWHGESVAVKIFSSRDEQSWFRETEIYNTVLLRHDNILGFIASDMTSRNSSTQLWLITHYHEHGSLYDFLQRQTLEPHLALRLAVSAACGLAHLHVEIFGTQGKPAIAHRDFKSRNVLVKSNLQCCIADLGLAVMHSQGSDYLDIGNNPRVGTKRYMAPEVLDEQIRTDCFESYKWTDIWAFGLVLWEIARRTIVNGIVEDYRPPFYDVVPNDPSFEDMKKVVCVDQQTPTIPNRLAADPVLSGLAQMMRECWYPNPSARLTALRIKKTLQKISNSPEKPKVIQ
# Chain of ALK-1/BMPR-2 receptor pair of the PathHunter U2Os dimerization cells (DiscoverX 93-0962C3) (Q13873 27-1038, chain 2 of 2): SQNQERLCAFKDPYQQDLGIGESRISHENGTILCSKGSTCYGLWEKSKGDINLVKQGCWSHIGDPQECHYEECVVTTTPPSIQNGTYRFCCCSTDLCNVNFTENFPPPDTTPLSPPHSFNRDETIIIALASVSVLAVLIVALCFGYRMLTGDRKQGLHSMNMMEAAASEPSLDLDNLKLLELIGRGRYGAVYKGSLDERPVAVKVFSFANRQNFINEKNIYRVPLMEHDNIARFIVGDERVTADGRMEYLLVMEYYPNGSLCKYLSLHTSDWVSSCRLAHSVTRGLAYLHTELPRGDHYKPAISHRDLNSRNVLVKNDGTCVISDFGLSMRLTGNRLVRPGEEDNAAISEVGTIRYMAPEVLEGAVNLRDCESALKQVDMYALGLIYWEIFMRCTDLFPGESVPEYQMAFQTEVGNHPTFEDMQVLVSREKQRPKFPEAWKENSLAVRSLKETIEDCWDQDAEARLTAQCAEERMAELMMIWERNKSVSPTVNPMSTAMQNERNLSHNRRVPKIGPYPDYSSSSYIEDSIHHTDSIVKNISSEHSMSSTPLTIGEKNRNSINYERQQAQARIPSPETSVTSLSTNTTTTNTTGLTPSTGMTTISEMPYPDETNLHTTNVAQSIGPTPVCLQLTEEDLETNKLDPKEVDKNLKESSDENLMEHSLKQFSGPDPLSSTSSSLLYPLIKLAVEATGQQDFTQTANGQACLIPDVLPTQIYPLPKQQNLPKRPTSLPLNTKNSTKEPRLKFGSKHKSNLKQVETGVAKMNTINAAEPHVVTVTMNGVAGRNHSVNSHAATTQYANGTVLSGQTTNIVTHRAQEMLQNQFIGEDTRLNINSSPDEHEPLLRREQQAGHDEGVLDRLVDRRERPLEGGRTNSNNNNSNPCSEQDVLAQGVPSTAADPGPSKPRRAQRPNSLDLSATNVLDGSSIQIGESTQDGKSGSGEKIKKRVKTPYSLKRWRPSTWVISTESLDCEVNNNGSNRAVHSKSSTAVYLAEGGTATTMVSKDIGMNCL
Binder,% Emax BMP9,Emax (RLU)
DGL651 (bispecific antibody) chain 1: not shown chain 2: EVQLLESGGGLVQPGGSLRLSCAASGFTFSDYYMTWIRQAPGKGLEWVSSISGGSTYYADSRKGRFTISRDNSENTLYLQMNSLRAEDTAVYYCARDFGVAGWFGQYGMDVWGQGTLVTVSSGGGGSGGGGSGGGGSQSVLTQPPSASGTPGQRVTISCTGSSSNIGAGYDVHWYQQLPGTAPKLLIYRSNQRPSGVPDRFSGSKSGTSASLAISGLRSEDEADYYCSSYAGNYNLVFGGGTKLTVLDKTHTCPPCPAPEAAGAPSVFLFPPKPKDTLMISRTPEVTCVVVDVSHEDPEVKFNWYVDGVEVHNAKTKPREEQYNSTYRVVSVLTVLHQDWLNGKEYKCKVSNKALPAPIEKTISKAKGQPREPQVCTLPPSRDELTKNQVSLSCAVKGFYPSDIAVEWESNGQPENNYKTTPPVLDSDGSFFLVSKLTVDKSRWQQGNVFSCSVMHEALHNHYTQKSLSLSPGWSHPQFEK,72%,1.76e+07 RLU
DGL732 (bispecific antibody) chain 1: EVQLLESGGGLVQPGGSLRLSCAASGFTFSDYWMTWIRQAPGKGLEWVSSISGGSTYYADSRKGRFTISRDNSENTLYLQMNSLRAEDTAVYYCARDFGVAGWFGQYGMDVWGQGTLVTVSSGGGGSGGGGSGGGGSQSVLTQPPSASGTPGQRVTISCTGSSSNIGAGYDVHWYQQLPGTAPKLLIYRSNQRPSGVPDRFSGSKSGTSASLAISGLRSEDEADYYCSSYAGNYNLVFGGGTKLTVLDKTHTCPPCPAPEAAGAPSVFLFPPKPKDTLMISRTPEVTCVVVDVSHEDPEVKFNWYVDGVEVHNAKTKPREEQYNSTYRVVSVLTVLHQDWLNGKEYKCKVSNKALPAPIEKTISKAKGQPREPQVCTLPPSRDELTKNQVSLSCAVKGFYPSDIAVEWESNGQPENNYKTTPPVLDSDGSFFLVSKLTVDKSRWQQGNVFSCSVMHEALHNHYTQKSLSLSPGWSHPQFEK chain 2: not shown,54%,845000 RLU
DGL652 (bispecific antibody) chain 1: not shown chain 2: EVQLLESGGGLVQPGGSLRLSCAASGFTFSDYYMTWIRQAPGKGLEWVSSISGGSTYYADSRKGRFTISRDNSENTLYLQMNSLRAEDTAVYYCARDFGVAGWFGQYGMDVWGQGTLVTVSSGGGGSGGGGSGGGGSQSVLTQPPSASGTPGQRVTISCTGSSSNIGAGYDVHWYQQLPGTAPKLLIYRSNQRPSGVPDRFSGSKSGTSASLAISGLRSEDEADYYCSSYAGNYNLVFGGGTKLTVLDKTHTCPPCPAPEAAGAPSVFLFPPKPKDTLMISRTPEVTCVVVDVSHEDPEVKFNWYVDGVEVHNAKTKPREEQYNSTYRVVSVLTVLHQDWLNGKEYKCKVSNKALPAPIEKTISKAKGQPREPQVCTLPPSRDELTKNQVSLSCAVKGFYPSDIAVEWESNGQPENNYKTTPPVLDSDGSFFLVSKLTVDKSRWQQGNVFSCSVMHEALHNHYTQKSLSLSPGWSHPQFEK,60%,1.48e+06 RLU
DGL656 (bispecific antibody) chain 1: EVQLLESGGGLVQPGGSLRLSCAASGFTFSDYYMNWIRQAPGKGLEWVSSISGGSTYYADSVKGRFTISRDNSENTLYLQMNSLRAEDTAVYYCARDFGVAGWFGYYGMDVWGQGTLVTVSSGGGGSGGGGSGGGGSQSVLTQPPSASGTPGQRVTISCTGSSSNIGAGYDVHWYQQLPGTAPKLLIYRSNQRPSGVPDRFSGSKSGTSASLAISGLRSEDEADYYCSSYAGNYNLVFGGGTKLTVLDKTHTCPPCPAPEAAGAPSVFLFPPKPKDTLMISRTPEVTCVVVDVSHEDPEVKFNWYVDGVEVHNAKTKPREEQYNSTYRVVSVLTVLHQDWLNGKEYKCKVSNKALPAPIEKTISKAKGQPREPQVCTLPPSRDELTKNQVSLSCAVKGFYPSDIAVEWESNGQPENNYKTTPPVLDSDGSFFLVSKLTVDKSRWQQGNVFSCSVMHEALHNHYTQKSLSLSPGWSHPQFEK chain 2: not shown,55%,1.36e+06 RLU
DGL733 (bispecific antibody) chain 1: EVQLLESGGGLVQPGGSLRLSCAASGFTFSDYYMTWIRQAPGKGLEWVSSISGGTTYYADSRKGRFTISRDNSENTLYLQMNSLRAEDTAVYYCARDFGVAGWFGQYGMDVWGQGTLVTVSSGGGGSGGGGSGGGGSQSVLTQPPSASGTPGQRVTISCTGSSSNIGAGYDVHWYQQLPGTAPKLLIYRSNQRPSGVPDRFSGSKSGTSASLAISGLRSEDEADYYCSSYAGNYNLVFGGGTKLTVLDKTHTCPPCPAPEAAGAPSVFLFPPKPKDTLMISRTPEVTCVVVDVSHEDPEVKFNWYVDGVEVHNAKTKPREEQYNSTYRVVSVLTVLHQDWLNGKEYKCKVSNKALPAPIEKTISKAKGQPREPQVCTLPPSRDELTKNQVSLSCAVKGFYPSDIAVEWESNGQPENNYKTTPPVLDSDGSFFLVSKLTVDKSRWQQGNVFSCSVMHEALHNHYTQKSLSLSPGWSHPQFEK chain 2: not shown,106%,1.65e+06 RLU
DGL655 (bispecific antibody) chain 1: EVQLLESGGGLVQPGGSLRLSCAASGFTFSDSYMSWIRQAPGKGLEWVSSISGGSTYYADSVKGRFTISRDNSENTLYLQMNSLRAEDTAVYYCARDFGVAGYFGQYGMDVWGQGTLVTVSSGGGGSGGGGSGGGGSQSVLTQPPSASGTPGQRVTISCTGSSSNIGAGYDVHWYQQLPGTAPKLLIYRSNQRPSGVPDRFSGSKSGTSASLAISGLRSEDEADYYCSSYAGNYNLVFGGGTKLTVLDKTHTCPPCPAPEAAGAPSVFLFPPKPKDTLMISRTPEVTCVVVDVSHEDPEVKFNWYVDGVEVHNAKTKPREEQYNSTYRVVSVLTVLHQDWLNGKEYKCKVSNKALPAPIEKTISKAKGQPREPQVCTLPPSRDELTKNQVSLSCAVKGFYPSDIAVEWESNGQPENNYKTTPPVLDSDGSFFLVSKLTVDKSRWQQGNVFSCSVMHEALHNHYTQKSLSLSPGWSHPQFEK chain 2: not shown,18%,437000 RLU
DGL731 (bispecific antibody) chain 1: EVQLLESGGGLVQPGGSLRLSCAASGFTFSDYYMTWIRQAPGKGLEWVSSISGGSTYYADSRKGRFTISRDNSENTLYLQMNSLRAEDTAVYYCARDFGVSGWFGQYGMDVWGQGTLVTVSSGGGGSGGGGSGGGGSQSVLTQPPSASGTPGQRVTISCTGSSSNIGAGYDVHWYQQLPGTAPKLLIYRSNQRPSGVPDRFSGSKSGTSASLAISGLRSEDEADYYCSSYAGNYNLVFGGGTKLTVLDKTHTCPPCPAPEAAGAPSVFLFPPKPKDTLMISRTPEVTCVVVDVSHEDPEVKFNWYVDGVEVHNAKTKPREEQYNSTYRVVSVLTVLHQDWLNGKEYKCKVSNKALPAPIEKTISKAKGQPREPQVCTLPPSRDELTKNQVSLSCAVKGFYPSDIAVEWESNGQPENNYKTTPPVLDSDGSFFLVSKLTVDKSRWQQGNVFSCSVMHEALHNHYTQKSLSLSPGWSHPQFEK chain 2: not shown,100%,1.56e+06 RLU
DGL730 (bispecific antibody) chain 1: EVQLLESGGGLVQPGGSLRLSCAASGFTFSDYYMTWIRQAPGKGLEWVSSISGGSTYYADSRKGRFTISRDNSENTLYLQMNSLRAEDTAVYYCARDYGVAGWFGQYGMDVWGQGTLVTVSSGGGGSGGGGSGGGGSQSVLTQPPSASGTPGQRVTISCTGSSSNIGAGYDVHWYQQLPGTAPKLLIYRSNQRPSGVPDRFSGSKSGTSASLAISGLRSEDEADYYCSSYAGNYNLVFGGGTKLTVLDKTHTCPPCPAPEAAGAPSVFLFPPKPKDTLMISRTPEVTCVVVDVSHEDPEVKFNWYVDGVEVHNAKTKPREEQYNSTYRVVSVLTVLHQDWLNGKEYKCKVSNKALPAPIEKTISKAKGQPREPQVCTLPPSRDELTKNQVSLSCAVKGFYPSDIAVEWESNGQPENNYKTTPPVLDSDGSFFLVSKLTVDKSRWQQGNVFSCSVMHEALHNHYTQKSLSLSPGWSHPQFEK chain 2: not shown,22%,342000 RLU
DGL653 (bispecific antibody) chain 1: not shown chain 2: EVQLLESGGGLVQPGGSLRLSCAASGFTFSDYYMTWIRQAPGKGLEWVSSISGGSTYYADSRKGRFTISRDNSENTLYLQMNSLRAEDTAVYYCARDFGVAGWFGQYGMDVWGQGTLVTVSSGGGGSGGGGSGGGGSQSVLTQPPSASGTPGQRVTISCTGSSSNIGAGYDVHWYQQLPGTAPKLLIYRSNQRPSGVPDRFSGSKSGTSASLAISGLRSEDEADYYCSSYAGNYNLVFGGGTKLTVLDKTHTCPPCPAPEAAGAPSVFLFPPKPKDTLMISRTPEVTCVVVDVSHEDPEVKFNWYVDGVEVHNAKTKPREEQYNSTYRVVSVLTVLHQDWLNGKEYKCKVSNKALPAPIEKTISKAKGQPREPQVCTLPPSRDELTKNQVSLSCAVKGFYPSDIAVEWESNGQPENNYKTTPPVLDSDGSFFLVSKLTVDKSRWQQGNVFSCSVMHEALHNHYTQKSLSLSPGWSHPQFEK,58%,1.43e+06 RLU
DGL654 (bispecific antibody) chain 1: EVQLLESGGGLVQPGGSLRLSCAASGFTFSDYYMNWIRQAPGKGLEWVSSISGGSTYYADSVKGRFTISRDNSENTLYLQMNSLRAEDTAVYYCARDFGVAGWFGQFGMDVWGQGTLVTVSSGGGGSGGGGSGGGGSQSVLTQPPSASGTPGQRVTISCTGSSSNIGAGYDVHWYQQLPGTAPKLLIYRSNQRPSGVPDRFSGSKSGTSASLAISGLRSEDEADYYCSSYAGNYNLVFGGGTKLTVLDKTHTCPPCPAPEAAGAPSVFLFPPKPKDTLMISRTPEVTCVVVDVSHEDPEVKFNWYVDGVEVHNAKTKPREEQYNSTYRVVSVLTVLHQDWLNGKEYKCKVSNKALPAPIEKTISKAKGQPREPQVCTLPPSRDELTKNQVSLSCAVKGFYPSDIAVEWESNGQPENNYKTTPPVLDSDGSFFLVSKLTVDKSRWQQGNVFSCSVMHEALHNHYTQKSLSLSPGWSHPQFEK chain 2: not shown,76%,1.87e+06 RLU
DGL734 (bispecific antibody) chain 1: EVQLLESGGGLVQPGGSLRLSCAASGFTFSDYWMTWIRQAPGKGLEWVSSISGGTTYYADSRKGRFTISRDNSENTLYLQMNSLRAEDTAVYYCARDYGVAGWFGQYGMDVWGQGTLVTVSSGGGGSGGGGSGGGGSQSVLTQPPSASGTPGQRVTISCTGSSSNIGAGYDVHWYQQLPGTAPKLLIYRSNQRPSGVPDRFSGSKSGTSASLAISGLRSEDEADYYCSSYAGNYNLVFGGGTKLTVLDKTHTCPPCPAPEAAGAPSVFLFPPKPKDTLMISRTPEVTCVVVDVSHEDPEVKFNWYVDGVEVHNAKTKPREEQYNSTYRVVSVLTVLHQDWLNGKEYKCKVSNKALPAPIEKTISKAKGQPREPQVCTLPPSRDELTKNQVSLSCAVKGFYPSDIAVEWESNGQPENNYKTTPPVLDSDGSFFLVSKLTVDKSRWQQGNVFSCSVMHEALHNHYTQKSLSLSPGWSHPQFEK chain 2: not shown,14%,217000 RLU

# — patent US20250002588A1 (DIAGONAL THERAPEUTICS, published 2025)
